According to patent publication US20250319216A1, “RADIOPHARMCEUTICAL COMPLEXES TARGETING PROSTATE-SPECIFIC MEMBRANE ANTIGEN AND ITS COMBINATIONS” (Bayer Aktiengesellschaft, priority 2022, published 2025):
Marks after values point to notes of the source that are not given here.

Assays:
[1] = system: PSMA expression in 22Rv1 tumors; assay: In vivo PSMA protein expression in 22Rv1 tumors by flow cytometry; set-up: species or system mice; settings: isolated 22Rv1 tumors, darolutamide 100 mg/kg BID p.o. for 18 days
Experimental: In vivo expression of PSMA protein was evaluated in 22Rv1 prostate tumor-bearing male nude (nu/nu) mice treated with vehicle or darolutamide (100 mg/kg, BID, p.o) for 18 days. 22Rv1 tumors were extracted (n=2) and dissociated tumor cells were analyzed by flow cytometry using the J591 antibody.

[2] = system: PSMA expression in 22Rv1 cells; assay: PSMA protein expression by flow cytometry; type: cell-based; settings: androgen-independent 22Rv1 cells, 0.08-5 μM darolutamide for 7 days
Experimental: (§1) The effect of darolutamide and 225Ac-pelgifatamab on PSMA mRNA and protein expression in vitro was studied in VCaP and 22Rv1 prostate cancer cells. To assess PSMA protein expression, VCaP and 22Rv1 cells were treated with 0.08-5 μM darolutamide for 7 days and PSMA expression was determined by flow cytometry using the murine PSMA-specific monoclonal antibody (mAb) J591 (prepared in-house). To assess FOLH1 gene expression, 22Rv1 cells were treated with 2 μM darolutamide and/or 0.15 kBq/mL 225Ac-pelgifatamab for 24 or 48 h. RNA was extracted with the RNeasy Plus Mini Kit (Qiagen), transcribed to cDNA using SuperScript IV VILO Master Mix (Invitrogen), and analyzed by qPCR.

[3] = system: PSMA expression in VCaP cells; assay: PSMA protein expression by flow cytometry; type: cell-based; settings: androgen-dependent VCaP cells, 0.08-5 μM darolutamide for 7 days
Experimental: as §1

22Rv1 tumors = assay: In vivo efficacy in 22Rv1 prostate cancer model; set-up: species or system mice; settings: 22Rv1, day 16
Experimental: The in vivo antitumor efficacy of 225Ac-pelgi in combination with darolutamide was evaluated in the androgen-independent prostate cancer model 22Rv1.

[4] = Size exclusion chromatography (SEC-UV) of Pelgifatamab TACs; type: physicochemical; settings: SEC-UV of TAC after radiolabeling
Experimental: Purity of the TACs were determined by SEC-UV. The method separates higher aggregate, dimer and fragments from the ACC monomer. The separation was done using a Acquity UPLC Protein BEH SEC, 1.7 μm, 200 Å, 4.6×300 mm column operated at 30° C. The mobile phase was 170 mM Ammonium acetate and 300 mM NaCl containing 10% 2-propanol and 0.1 mM DCTA. The flowrate was 0.3 mL/min, and the ACCs were detected at UV 280 nm. The analysis was performed on an Agilent 1200 series HPLC with 35 μL injections.

[5] = Radiochemical purity (RCP) of Pelgifatamab TACs by iTLC; type: physicochemical; settings: for RCP (radiochemical purity): iTLC after Ac-225 labeling at 2 MBq/mg, macropa at room temperature, DOTA at 60° C., one hour
Experimental: The mixture was incubated for one hour at room temperature for macropa-Pelgifatamab while the two DOTA-Pelgifatamab ACCs were incubated for one hour at 60° C. on a heating block. The RCP of the TACs was measured by instant thin layer chromatography using citrate buffer for elution, three replicates for each sample. […] The measurement of radioactivity was done with a Digital Gamma-Ray Spectrometer (DSPEC-50, Ortec). The activities were measured at least 6 hours after radiolabeling to allow daughter nuclides to be in equilibrium with Ac-225. […] Pelgifatamab-macropa and the PSMA binding antibody J591 conjugated with DOTA were both labeled with actinium-225. Labeling was performed at room temperature. J591-DOTA was also labeled at 60° C. Radiochemical purity was determined by instant thin-layer chromatography (iTLC). Labeled and free actinium-225 were counted in a germanium detector using actinium-225 specific energy lines. Actinium-225-labeling of pelgifatamab was efficient at room temperature as compared with actinium-225-labeling of the murine monoclonal PSMA antibody J591 (225Ac-J591, FIG. 8).

DU-145 cells = settings: PSMA negative DU-145 cells, 5 days
Experimental: (§2) Cells were treated for 5 days and subsequentially cell viability was determined using CellTiterGlo (Promega).

XRCC2 = assay: Gene expression by RT-qPCR in 22Rv1 cells; type: cell-based; settings: 24 or 48 h
LNCaP cells = settings: 5 days
Experimental: as §2

PC-3 cells = settings: PSMA negative PC-3 cells, 5 days
Experimental: as §2

[6] = system: PSMA-expressing prostate cancer xenograft model MDA PCa 2b; settings: 72-504 hours
Experimental: Biodistribution of Ac-225-macropa-Pelgifatamab was investigated in the PSMA-expressing prostate cancer xenograft model MDA PCa 2b. Female RJ: NMRI-Foxn1nu/nu mice were implanted with testosterone pellets subcutaneously and were inoculated with 1×10^6 MDA PCa 2b cells on the right flank. Animals were pre-treated with 200 μg/mouse unspecific IgG2a antibody 24 hours prior to hot dosing. Animals were treated with 300 kBq/kg Ac-225-macropa-Pelgifatamab IV at a total protein dose of 0.75 mg/kg. In a separate in vivo study the xenograft model MDA PCa 2b was treated with 250 kBq/kg Ac-225-DOTA-Pelgifatamab at a protein dose of 0.14 mg/kg. In both studies, animals were sacrificed 72, 168, 336, and 504 hours post treatment and 225Ac in blood, tumor, liver, kidney, spleen and femur was determined.

C4-2 cells = settings: 5 days
Experimental: as §2

KUCaP-1 tumors = assay: In vivo antitumor efficacy in KUCaP-1 model; set-up: species or system mice
Excerpt: In a KUCaP-1 efficacy study, male scid/scid mice (8 weeks, 22 g, Janvier Labs) were implanted s.c. with 5×5×5 mm KUCaP-1 tumor fragments. When the tumors reached an average size of 220 mm^3, mice were randomized (n=9-10 mice/group), and the next day, treated with vehicle or a single i.v. injection of isotype control (300 kBq/kg, […] mg/kg). In addition, for one treatment group, tumors were allowed to reach a size of 470 mm^3, before treatment with a single dose of 300 kBq/kg ^225Ac-pelgi. The study was terminated on day 72 after tumor cell inoculation.

CDKN1A = assay: Gene expression by RT-qPCR in 22Rv1 cells; type: cell-based; settings: 24 or 48 h
22Rv1 cells = 22Rv1 cells (printed 22R1), 5 days
Experimental: as §2

[7] = system: LNCaP prostate cancer model; assay: In vivo antitumor efficacy in LNCaP model; set-up: species or system mice; settings: total antibody dose 0.75 mg/kg
Experimental: Antitumor efficacy of 225Ac-pelgifatamab was assessed in the LNCaP prostate cancer model: Male SCID mice (6 weeks, 22 g, Janvier Labs) were implanted s.c. with testosterone pellets (12.5 mg, 4 mm) and 1-3 days later, inoculated s.c. with 5×10^6 LNCaP cells. When the tumors reached an average size of 160 mm^3, mice were randomized (n=10 mice/group), and two days later, treated with vehicle or a single i.v. dose of ^225Ac-pelgifatamab (70, 125, or 250 kBq/kg, total antibody dose 0.75 mg/kg). The study was terminated on day 112 after tumor cell inoculation.

[8] = system: C4-2 prostate cancer cells xenograft; assay: In vivo efficacy study in C4-2 xenograft; set-up: species or system mice; settings: single dose IV 300 kBq/kg, total antibody dose 0.14 mg/kg
Experimental: The compounds Ac-225-macropa-Pelgifatamab, Ac-225-DOTA-Pelgifatamab and isotype-macropa were labeled with 225Ac. Mice xenografted with C4-2 prostate cancer cells were treated with a single dose IV of 300 kBq/kg with a total antibody dose of 0.14 mg/kg. […] Body weight loss was less than 10% for all targeted treatment groups. Effects on the hematopoietic system were determined by WBC counts at the end of the experiment (FIG. 16 (C)).

[9] = 300 kBq/kg IV, 0.75 mg/kg total protein

Q: For `CC(O)c1cc(C(=O)N[C@@H](C)Cn2ccc(-c3ccc(C#N)c(Cl)c3)n2)[nH]n1` (some centres unmarked) [Darolutamide, darolutamide], which “increase in PSMA expression compared with vehicle” value [1] is on record?
A: The value was 50 fold.

Q: And the “induction of PSMA expression” value [2]?
A: Its value is > 2 fold.

Q: What about the “induction of PSMA expression” value [3] of the same molecule?
A: The value was “more than 10 fold”.

Q: What about the T/C (22Rv1 tumors; 100 mg/kg, BID, p.o.) of the same molecule?
A: Its T/C is 0.78.

Q: Which results are given for Ac-225-DOTA-Pelgifatamab CAR 5.7?
A: Aggregate [4]: 18.4 Area % (UV); Dimer [4]: 3.0 Area % (UV); Monomer [4]: 78.6 Area % (UV); RCP (radiochemical purity) [5]: 99.2%

Q: Which results are given for Ac-225-DOTA-Pelgifatamab CAR 12.7?
A: Aggregate [4]: 30.5 Area % (UV); Dimer [4]: 4.8 Area % (UV); Monomer [4]: 64.7 Area % (UV); RCP (radiochemical purity) [5]: 99.5%

Q: Which cytotoxicity (DU-145 cells) does the source give for Ac-225-macropa-Pelgifatamab here?
A: The cytotoxicity was “little cytotoxicity”.

Q: And the “expression of XRCC2” value (XRCC2)?
A: Its value is “decreased”.

Q: What about the cytotoxicity (LNCaP cells) of the same molecule?
A: Its cytotoxicity is “Strong cytotoxicity”.

Q: And the cytotoxicity (PC-3 cells)?
A: Its cytotoxicity is “little cytotoxicity”.

Q: And the T/C (22Rv1 tumors; 75 kBq/kg, single dose, i.v.)?
A: Its T/C is 0.71.

Q: What about the T/C (22Rv1 tumors; 300 kBq/kg, single dose, i.v.) of the same molecule?
A: The T/C was 0.41 ***.

Q: What about the “radioactivity in the liver compared with 225Ac-DOTA-Pelgifatamab” value [6] of the same molecule?
A: Its value is “lower and over time decreasing radioactivity”.

Q: What about the “uptake in the spleen compared with 225Ac-DOTA-Pelgifatamab” value [6] of the same molecule?
A: Its value is “less uptake”.

Q: What about the “accumulation in normal organs” value [6, 9] of the same molecule?
A: The value was “generally low and transient”.

Q: What about the “tumor accumulation of 225Ac” value [6, 9] of the same molecule?
A: The value was “strong and persistent tumor accumulation”.

Q: And the “clearance from the bone compared with 225Ac-DOTA-Pelgifatamab” value ([6]; femur)?
A: Its value is “improved clearance”.

Q: What about the cytotoxicity (C4-2 cells) of the same molecule?
A: Its cytotoxicity is “Strong cytotoxicity”.

Q: And the T/Cvolume ratio (KUCaP-1 tumors; 75 kBq/kg single dose)?
A: Its T/Cvolume ratio is 0.55.

Q: And the T/Cvolume ratio (KUCaP-1 tumors; 150 kBq/kg single dose)?
A: Its T/Cvolume ratio is 0.44.

Q: What about the T/Cvolume ratio (KUCaP-1 tumors; 300 kBq/kg single dose) of the same molecule?
A: Its T/Cvolume ratio is 0.26.

Q: What about the “effect on large tumors” value (KUCaP-1 tumors; single dose 300 kBq/kg, tumors 470 mm^3 at treatment start) of the same molecule?
A: The value was “induced tumor regression”.

Q: And the “RNA expression of CDKN1A” value (CDKN1A)?
A: The value was “increased”.

Q: And the cytotoxicity (22Rv1 cells)?
A: The cytotoxicity was “Strong cytotoxicity”.

Q: And the “T/Cvolume (treatment/control) ratio” value ([7]; 70 kBq/kg single dose i.v.)?
A: The value was 0.00.

Q: And the “T/Cvolume (treatment/control) ratio” value ([7]; 125 kBq/kg single dose i.v.)?
A: Its value is 0.00.

Q: And the “T/Cvolume (treatment/control) ratio” value ([7]; 250 kBq/kg single dose i.v.)?
A: The value was 0.00.

Q: And the Dimer [4]?
A: The Dimer was 0.5 Area % (UV).

Q: And the Monomer [4]?
A: Its Monomer is 99.5 Area % (UV).

Q: And the “antitumor activity compared with Ac-225-DOTA-Pelgifatamab” value [8]?
A: The value was “higher antitumor activity”.

Q: What about the “RCP (radiochemical purity)” value [5] of the same molecule?
A: The value was 99.9%.

Q: What about the radiochemical purity ([5]; iTLC after radiolabeling at room temperature (FIG. 8)) of the same molecule?
A: The radiochemical purity was 100%.
